The values that follow are results of earlier work, collected in article PMC7755605.

The target of this data set is TRAF6 (Homo sapiens) (UniProt Q9Y4K3).
Chain of TRAF6 (Homo sapiens) (Q9Y4K3 whole entry): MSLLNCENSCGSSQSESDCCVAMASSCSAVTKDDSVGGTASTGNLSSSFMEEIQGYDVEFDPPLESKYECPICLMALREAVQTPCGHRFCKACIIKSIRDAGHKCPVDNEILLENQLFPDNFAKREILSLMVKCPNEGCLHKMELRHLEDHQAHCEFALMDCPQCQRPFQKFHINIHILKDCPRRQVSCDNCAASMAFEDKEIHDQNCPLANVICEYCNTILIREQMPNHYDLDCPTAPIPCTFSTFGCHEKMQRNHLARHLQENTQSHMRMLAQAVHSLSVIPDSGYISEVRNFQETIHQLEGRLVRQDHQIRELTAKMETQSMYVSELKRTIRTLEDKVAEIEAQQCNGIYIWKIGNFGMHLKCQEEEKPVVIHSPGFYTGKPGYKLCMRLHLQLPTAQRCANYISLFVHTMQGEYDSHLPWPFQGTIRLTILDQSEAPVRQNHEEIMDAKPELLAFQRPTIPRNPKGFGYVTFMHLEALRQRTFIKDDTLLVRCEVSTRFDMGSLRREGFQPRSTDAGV

Chain of TRANCE-R (Q9Y6Q6 30-616): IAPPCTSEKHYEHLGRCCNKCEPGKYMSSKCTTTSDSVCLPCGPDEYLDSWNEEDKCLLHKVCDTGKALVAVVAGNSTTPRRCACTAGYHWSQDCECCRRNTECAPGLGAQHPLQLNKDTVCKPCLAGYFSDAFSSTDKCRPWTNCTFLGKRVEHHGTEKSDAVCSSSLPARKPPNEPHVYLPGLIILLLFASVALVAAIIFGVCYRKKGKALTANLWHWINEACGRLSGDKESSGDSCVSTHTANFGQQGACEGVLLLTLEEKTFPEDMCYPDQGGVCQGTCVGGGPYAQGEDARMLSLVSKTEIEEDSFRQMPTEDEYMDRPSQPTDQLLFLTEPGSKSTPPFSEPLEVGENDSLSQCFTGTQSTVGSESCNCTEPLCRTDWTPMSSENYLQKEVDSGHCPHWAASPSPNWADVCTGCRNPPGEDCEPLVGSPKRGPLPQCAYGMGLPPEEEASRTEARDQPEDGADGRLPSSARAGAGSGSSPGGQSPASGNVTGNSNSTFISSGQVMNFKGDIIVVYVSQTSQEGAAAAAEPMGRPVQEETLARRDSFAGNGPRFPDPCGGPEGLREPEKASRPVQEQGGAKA

Usually Kd stands for the concentration at which binding is half-saturated. Turning to TRANCE-R (from UniProt Q9Y6Q6), the Kd was 84 µM.
